{"source": "paper doi:10.1101/2023.09.21.558797", "about": "“Dynamin 1xA interacts with Endophilin A1 via its spliced long C-terminus for ultrafast endocytosis” (bioRxiv, 2023)", "binders": {"B1": {"name": "His-tagged mouse Endophilin A1 SH3 domain (domain or fragment)", "chain": "not shown", "notes": "Endophilin A1, mouse, SH3 domain; the methods describe only a GST-Endophilin A1-SH3 construct (mouse, 292-352); no His-tagged construct is described there; also called His-tagged mouse Endophilin-SH3 domain"}, "B2": {"name": "GST-Dyn1xA 746-798 (domain or fragment, rat, UniProt P21575 746-798, looked up)", "chain": "NTTTVSTPMPPPVDDSWLQVQSVPAGRRSPTSSPTPQRRAPAVPPARPGSRGP", "notes": "Dynamin 1, rat, N746 to P798 of the PRR, common to splice variants xA and xB; also called phosphobox-1 peptide"}, "B3": {"name": "Dyn1xA 746-798 (GST tag removed) (domain or fragment, rat, UniProt P21575 746-798, looked up)", "chain": "NTTTVSTPMPPPVDDSWLQVQSVPAGRRSPTSSPTPQRRAPAVPPARPGSRGP", "modifications": "also: 15N-labelled (13C/15N for assignment)", "notes": "Dynamin 1, rat, N746 to P798 of the PRR; source: E. coli JM109, GST tag proteolytically cleaved, purified by gel filtration"}, "B4": {"name": "Endophilin A1 SH3 domain (GST tag removed) (domain or fragment)", "chain": "not shown", "notes": "Endophilin A1, mouse, SH3 domain, amino acids 292-352 by the methods (the results say residues D291-H352); plasmid from Peter McPherson (McGill University); unlabelled in the titrations; also called endophilin SH3; Endophilin A SH3; source: E. coli JM109, GST tag proteolytically cleaved, purified by gel filtration"}, "B5": {"name": "GST-Dyn1xA 806-864 (domain or fragment, rat, UniProt P21575 806-864, looked up)", "chain": "GSALGGAPPVPSRPGASPDPFGPPPQVPSRPNRAPPGVPSRSGQASPSRPESPRPPFDL", "notes": "Dynamin 1 splice variant xA, rat, G806 to L864"}, "B6": {"name": "Dyn1xA 806-864 (GST tag removed) (domain or fragment, rat, UniProt P21575 806-864, looked up)", "chain": "GSALGGAPPVPSRPGASPDPFGPPPQVPSRPNRAPPGVPSRSGQASPSRPESPRPPFDL", "modifications": "also: 15N-labelled (13C/15N for assignment)", "notes": "Dynamin 1 splice variant xA, rat, G806 to L864; source: E. coli JM109, GST tag proteolytically cleaved, purified by gel filtration"}}, "conditions_in_all_cases": "both partners purified", "key": {"[1]": {"target": "T1, GST-Dyn1xA-PRR (full-length proline-rich region of Dynamin 1 splice variant xA, 746-864) (rat, UniProt P21575 746-864)", "T1 construct": "cloned in pGEX-6P-1; used on beads in pull-downs and in solution in the ELISA; also called PRD", "T1 sequence (looked up)": "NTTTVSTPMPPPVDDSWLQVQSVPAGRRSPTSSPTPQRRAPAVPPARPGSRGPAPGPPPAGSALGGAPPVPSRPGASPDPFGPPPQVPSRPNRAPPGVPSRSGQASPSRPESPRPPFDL", "experiment": "ELISA; His-tagged mouse Endophilin A1 SH3 domain coated on a 96-well plate, overlaid with increasing concentrations of GST-tagged Dyn1-PRR peptides; two experiments of four replicates"}, "[2]": {"target": "B1", "experiment": "ELISA; His-tagged mouse Endophilin A1 SH3 domain coated on a 96-well plate, overlaid with increasing concentrations of GST-tagged Dyn1-PRR peptides; two experiments of four replicates"}, "[3]": {"target": "B4", "experiment": "NMR titration; 1H-15N HSQC chemical shift perturbation; unlabelled Endophilin A1 SH3 titrated into 15N-labelled Dyn1 peptide; 298 K, 600 MHz"}, "[4]": {"target": "T2, Dyn1xA-PRR 746-864 (GST tag removed) (rat, UniProt P21575 746-864, 15N-labelled (or 15N, 13C labelled) for NMR)", "T2 construct": "the SEC-MALS mass (19.2 kDa for the 1:1 complex) fits the cleaved forms; also called PRD; source: E. coli JM109, GST tag proteolytically cleaved, purified by gel filtration", "T2 sequence (looked up)": "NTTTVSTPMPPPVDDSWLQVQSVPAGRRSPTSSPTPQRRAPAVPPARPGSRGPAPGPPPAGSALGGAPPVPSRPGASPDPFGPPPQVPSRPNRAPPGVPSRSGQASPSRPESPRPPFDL", "experiment": "SEC-MALS; Superdex 75 10/300 GL, 20 mM HEPES, 100 mM NaCl, 1 mM DTT, 1 mM PMSF, pH 7.2; complex at 0.5 mg and diluted to one third (0.167 mg)"}}, "note": "No end group written: not given here."}
{"binder": "B1", "values": [{"measurement": "Kd", "setting": "[1]", "result": 44, "unit": "nM"}]}
{"binder": "B2", "values": [{"measurement": "fold weaker affinity than xA_(746–864)", "setting": "[2]", "result": 9, "unit": "fold"}]}
{"binder": "B3", "values": [{"measurement": "binding result", "setting": "[3]", "result": "binds"}]}
{"binder": "B4", "values": [{"measurement": "stoichiometry N", "setting": "[4]", "result": 1}]}
{"binder": "B5", "values": [{"measurement": "fold difference in affinity from xA_(746–864)", "setting": "[2]", "result": "< 2", "unit": "fold"}, {"measurement": "fold higher affinity than xA_(746–798)", "setting": "[2]", "result": 5, "unit": "fold"}]}
{"binder": "B6", "values": [{"measurement": "binding result", "setting": "[3]", "result": "binds"}]}
